# From article PMC10120002 (Proceedings of the National Academy of Sciences of the …, 2023)
# Tests used:
# [1] = molecular target: T1, recombinant Cdk5/p25 complex (UniProt Q00535 1-292; Q15078 99-307); assay: BLI
# [2] = molecular target: T1, recombinant Cdk5/p25 complex; assay: MST
# [3] = molecular target: Cdk5 protein alone (recombinant) (UniProt Q00535 1-292); assay: MST
binder,measurement,setting,value
ARAFGIPVRCYS [Cdk5i peptide],Kd,[1],220 nM
same,Kd,[2],170 nM
same,Kd,[3],15700 nM
